Results reported in patent US20250230251A1 (Bristol-Myers Squibb, published 2025).

T1: huIL-18Rβ-HisAvi (human, UniProt O95256 20-356, biotinylated in the Octet blocking assay)
T1 construct: Soluble analyte in all SPR runs; captured on streptavidin sensors in the Octet assay; also called human IL-18Rβ; human IL-18Rβ-Avi-His
T1 sequence: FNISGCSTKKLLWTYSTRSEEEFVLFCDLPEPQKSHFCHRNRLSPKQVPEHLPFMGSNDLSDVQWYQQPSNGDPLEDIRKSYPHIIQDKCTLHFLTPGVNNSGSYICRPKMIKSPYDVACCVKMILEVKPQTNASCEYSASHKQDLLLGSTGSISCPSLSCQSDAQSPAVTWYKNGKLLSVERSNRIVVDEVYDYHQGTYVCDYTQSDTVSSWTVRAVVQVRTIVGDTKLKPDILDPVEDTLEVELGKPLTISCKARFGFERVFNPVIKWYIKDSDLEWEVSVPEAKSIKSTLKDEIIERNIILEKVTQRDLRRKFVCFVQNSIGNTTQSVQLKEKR

T2: human IL-18Rβ on cells (human, UniProt O95256 20-599)
T2 sequence: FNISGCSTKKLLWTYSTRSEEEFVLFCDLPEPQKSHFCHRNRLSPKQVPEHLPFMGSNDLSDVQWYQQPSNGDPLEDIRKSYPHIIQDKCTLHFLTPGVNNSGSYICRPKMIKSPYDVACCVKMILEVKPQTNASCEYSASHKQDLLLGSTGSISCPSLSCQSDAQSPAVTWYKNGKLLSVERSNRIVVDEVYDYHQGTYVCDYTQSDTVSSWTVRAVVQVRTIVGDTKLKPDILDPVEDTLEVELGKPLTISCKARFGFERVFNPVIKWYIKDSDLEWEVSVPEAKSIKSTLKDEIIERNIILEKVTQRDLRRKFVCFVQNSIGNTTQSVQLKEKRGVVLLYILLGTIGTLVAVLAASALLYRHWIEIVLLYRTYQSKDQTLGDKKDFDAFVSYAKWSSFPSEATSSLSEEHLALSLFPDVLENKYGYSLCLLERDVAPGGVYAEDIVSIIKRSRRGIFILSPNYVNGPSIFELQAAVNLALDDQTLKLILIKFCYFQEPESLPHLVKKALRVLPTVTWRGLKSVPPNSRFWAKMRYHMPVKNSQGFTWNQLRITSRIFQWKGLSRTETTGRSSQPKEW

T3: cyIL-18Rβ-HisAvi (cynomolgus monkey)
T3 construct: Soluble analyte in SPR; also called cyno IL-18Rβ; cynomolgus monkey IL-18Rβ
T3 chain: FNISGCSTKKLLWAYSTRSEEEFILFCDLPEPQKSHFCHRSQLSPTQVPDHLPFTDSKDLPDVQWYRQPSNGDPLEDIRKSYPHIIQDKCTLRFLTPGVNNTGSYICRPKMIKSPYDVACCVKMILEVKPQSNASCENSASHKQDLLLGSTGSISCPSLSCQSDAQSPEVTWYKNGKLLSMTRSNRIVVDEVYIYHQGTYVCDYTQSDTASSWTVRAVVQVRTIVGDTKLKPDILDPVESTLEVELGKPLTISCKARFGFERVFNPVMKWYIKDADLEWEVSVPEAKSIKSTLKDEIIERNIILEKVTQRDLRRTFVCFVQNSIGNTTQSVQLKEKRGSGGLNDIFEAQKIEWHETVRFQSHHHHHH


Key:
huIL-18Rβ-HisAvi [1] = target: T1, huIL-18Rβ-HisAvi; test: SPR T200, mAb on anti-hFc, 37C, pH 7.4
huIL-18Rβ-HisAvi [2] = target: T1, huIL-18Rβ-HisAvi; test: SPR T200, mAb on anti-hFc, 37C, pH 6
human IL-18Rβ on cells = target: T2, human IL-18Rβ on cells; test: cell-based or functional assay
cyIL-18Rβ-HisAvi [3] = target: T3, cyIL-18Rβ-HisAvi; test: SPR T200, mAb on anti-hFc, 37C, pH 7.4
cyIL-18Rβ-HisAvi [4] = target: T3, cyIL-18Rβ-HisAvi; test: SPR T200, mAb on anti-hFc, 37C, pH 6
huIL-18Rβ-HisAvi [5] = target: T1, huIL-18Rβ-HisAvi; test: SPR T200, mAb on anti-hFc, 37C, pH 6; remark: listed apart in the source
cyIL-18Rβ-HisAvi [6] = target: T3, cyIL-18Rβ-HisAvi; test: SPR T200, mAb on anti-hFc, 37C, pH 6
cyIL-18Rβ-HisAvi [7] = target: T3, cyIL-18Rβ-HisAvi; test: SPR T200, mAb on anti-hFc, 37C, pH 7.4
huIL-18Rβ-HisAvi [8] = target: T1, huIL-18Rβ-HisAvi; test: SPR T200, mAb on anti-hFc, 37C, pH 7.4; remark: listed apart in the source

| Binder | Kd (huIL-18Rβ-HisAvi [1]) [nM] | koff (huIL-18Rβ-HisAvi [1]) [s⁻¹] | kon (huIL-18Rβ-HisAvi [1]) [M⁻¹ s⁻¹] | Kd (huIL-18Rβ-HisAvi [2]) [nM] | koff (huIL-18Rβ-HisAvi [2]) [s⁻¹] | kon (huIL-18Rβ-HisAvi [2]) [M⁻¹ s⁻¹] | IC50, LPS+IL-12 dependent IFNg production, human whole blood (human IL-18Rβ on cells) [nM] | Kd (cyIL-18Rβ-HisAvi [3]) [nM] | koff (cyIL-18Rβ-HisAvi [3]) [s⁻¹] | kon (cyIL-18Rβ-HisAvi [3]) [M⁻¹ s⁻¹] | Kd (cyIL-18Rβ-HisAvi [4]) [nM] | koff (cyIL-18Rβ-HisAvi [4]) [s⁻¹] | kon (cyIL-18Rβ-HisAvi [4]) [M⁻¹ s⁻¹] | Kd (huIL-18Rβ-HisAvi [5]) [nM] | koff (huIL-18Rβ-HisAvi [5]) [s⁻¹] | kon (huIL-18Rβ-HisAvi [5]) [M⁻¹ s⁻¹] | Kd (cyIL-18Rβ-HisAvi [6]) [nM] | koff (cyIL-18Rβ-HisAvi [6]) [s⁻¹] | kon (cyIL-18Rβ-HisAvi [6]) [M⁻¹ s⁻¹] | Kd (cyIL-18Rβ-HisAvi [7]) [nM] | further results |
| --- | --- | --- | --- | --- | --- | --- | --- | --- | --- | --- | --- | --- | --- | --- | --- | --- | --- | --- | --- | --- | --- |
| P8-V2 (antibody, human IgG1, kappa, name in Kabat numbering, built from the chains of the parent P8 with the printed mutations) heavy: QVQLVQSGAEVKKPGASVKVSCKASGYTFTSYYMHWVRQAPGQGLEWMGIINPRGGYTTYAQKFQGRVTMTRDTSTSTVYMELSSLRSEDTAVYYCAKEGRVSPTDYYGMDVWGQGTTVTVSSASTKGPSVFPLAPSSKSTSGGTAALGCLVKDYFPEPVTVSWNSGALTSGVHTFPAVLQSSGLYSLSSVVTVPSSSLGTQTYICNVNHKPSNTKVDKRVEPKSCDKTHTCPPCPAPEAEGAPSVFLFPPKPKDTLMISRTPEVTCVVVDVSHEDPEVKFNWYVDGVEVHNAKTKPREEQYNSTYRVVSVLTVLHQDWLNGKEYKCKVSNKALPAPIEKTISKAKGQPREPQVYTLPPSREEMTKNQVSLTCLVKGFYPSDIAVEWESNGQPENNYKTTPPVLDSDGSFFLYSKLTVDKSRWQQGNVFSCSVMHEALHNHYTQKSLSLSPG light: not shown | 0.73 | 0.00049 | 680000 | 0.18 | 0.00028 | 1.6e+06 | 0.87 | – | – | – | – | – | – | – | – | – | – | – | – | – | – |
| P8-V1 (antibody, human IgG1, kappa, V domains shown, Variant of P8) VH: QVQLVQSGAEVKKPGASVKVSCKASGYTFTSYYMHWVRQAPGQGLEWMGIINPRGGYTTYAQKFQGRVTMTRDTSTSTVYMELSSLRSEDTAVYYCAKEGRVSPTDYYGMDVWGQGTTVTVSS VL: not shown | 0.8 | 0.00047 | 580000 | 0.22 | 0.00028 | 1.3e+06 | 1.09 | – | – | – | – | – | – | – | – | – | – | – | – | – | – |
| P20-V6 (antibody, human IgG1, kappa, name in Kabat numbering, built from the chains of the parent P20 with the printed mutation) heavy: QVQLQESGPGLVKPSETLSLTCTVSGGSINNYYWSWIRQPPGKGLEWIGYIFYSGTTNYNPSLKSRVTISVDTSKNQFSLKLSSVTAADTAVYYCARDVGIAARNSYYYVMDVWGQGTTVTVSSASTKGPSVFPLAPSSKSTSGGTAALGCLVKDYFPEPVTVSWNSGALTSGVHTFPAVLQSSGLYSLSSVVTVPSSSLGTQTYICNVNHKPSNTKVDKRVEPKSCDKTHTCPPCPAPEAEGAPSVFLFPPKPKDTLMISRTPEVTCVVVDVSHEDPEVKFNWYVDGVEVHNAKTKPREEQYNSTYRVVSVLTVLHQDWLNGKEYKCKVSNKALPAPIEKTISKAKGQPREPQVYTLPPSREEMTKNQVSLTCLVKGFYPSDIAVEWESNGQPENNYKTTPPVLDSDGSFFLYSKLTVDKSRWQQGNVFSCSVMHEALHNHYTQKSLSLSPG light: AIQLTQSPSSLSASVGDRVTITCRASQGISSALAWYQQKPGKAPKFLIYDASSLESGVPSRFSGSGSGTDFTLTISSLQPEDFATYYCQQFNSYPITFGQGTRLEIKRTVAAPSVFIFPPSDEQLKSGTASVVCLLNNFYPREAKVQWKVDNALQSGNSQESVTEQDSKDSTYSLSSTLTLSKADYEKHKVYACEVTHQGLSSPVTKSFNRGEC | 1 | 0.00022 | 210000 | 0.13 | 6.8e-05 | 520000 | 0.85 | 2.9 | 0.00032 | 110000 | 0.61 | 0.00015 | 250000 | 0.13 | 6.8e-05 | 520000 | 0.61 | 0.00015 | 250000 | 2.9 | koff (cyIL-18Rβ-HisAvi [7]): 0.00032 s⁻¹; kon (cyIL-18Rβ-HisAvi [7]): 110000 M⁻¹ s⁻¹; Kd (huIL-18Rβ-HisAvi [8]): 1 nM; koff (huIL-18Rβ-HisAvi [8]): 0.00022 s⁻¹; kon (huIL-18Rβ-HisAvi [8]): 210000 M⁻¹ s⁻¹ |
| P21-V2 (antibody, human IgG1, kappa, name in Kabat numbering, built from the chains of the parent P21 with the printed mutation) heavy: QVQLQQSGPGLVKPSETLSLTCTVSGGSISNYYWTWIRQPPGKGLEWIGYISDSGSTNYNPSLKSRVTISVDTSKNQFSLKLSSVTAADTAVYYCARETIVVRGFYFYVMDVWGQGTTVTVSSASTKGPSVFPLAPSSKSTSGGTAALGCLVKDYFPEPVTVSWNSGALTSGVHTFPAVLQSSGLYSLSSVVTVPSSSLGTQTYICNVNHKPSNTKVDKRVEPKSCDKTHTCPPCPAPEAEGAPSVFLFPPKPKDTLMISRTPEVTCVVVDVSHEDPEVKFNWYVDGVEVHNAKTKPREEQYNSTYRVVSVLTVLHQDWLNGKEYKCKVSNKALPAPIEKTISKAKGQPREPQVYTLPPSREEMTKNQVSLTCLVKGFYPSDIAVEWESNGQPENNYKTTPPVLDSDGSFFLYSKLTVDKSRWQQGNVFSCSVMHEALHNHYTQKSLSLSPG light: not shown | 2.3 | 0.00053 | 230000 | 0.7 | 0.00043 | 610000 | 1.65 | 22 | 0.0032 | 150000 | – | – | – | – | – | – | 14 | 0.0022 | 160000 | – | – |
| P21-V3 (antibody, human IgG1, kappa, name in Kabat numbering, built from the chains of the parent P21 with the printed mutations) heavy: QVQLQESGPGLVKPSETLSLTCTVSGGSISNYYWTWIRQPPGKGLEWIGYISDSGSTNYNPSLKSRVTISVDTSKNQFSLKLSSVTAADTAVYYCARETIVVRGFYFYVMDVWGQGTTVTVSSASTKGPSVFPLAPSSKSTSGGTAALGCLVKDYFPEPVTVSWNSGALTSGVHTFPAVLQSSGLYSLSSVVTVPSSSLGTQTYICNVNHKPSNTKVDKRVEPKSCDKTHTCPPCPAPEAEGAPSVFLFPPKPKDTLMISRTPEVTCVVVDVSHEDPEVKFNWYVDGVEVHNAKTKPREEQYNSTYRVVSVLTVLHQDWLNGKEYKCKVSNKALPAPIEKTISKAKGQPREPQVYTLPPSREEMTKNQVSLTCLVKGFYPSDIAVEWESNGQPENNYKTTPPVLDSDGSFFLYSKLTVDKSRWQQGNVFSCSVMHEALHNHYTQKSLSLSPG light: not shown | 2.3 | 0.00054 | 240000 | 0.66 | 0.00039 | 590000 | 1.63 | 17 | 0.0027 | 160000 | 8.4 | 0.0016 | 190000 | 0.66 | 0.00039 | 590000 | 8.4 | 0.0016 | 190000 | 17 | koff (cyIL-18Rβ-HisAvi [7]): 0.0027 s⁻¹; kon (cyIL-18Rβ-HisAvi [7]): 160000 M⁻¹ s⁻¹; Kd (huIL-18Rβ-HisAvi [8]): 2.3 nM; koff (huIL-18Rβ-HisAvi [8]): 0.00054 s⁻¹; kon (huIL-18Rβ-HisAvi [8]): 240000 M⁻¹ s⁻¹ |
